Tested on: peptide library, one residue held at a place counted from the Y acceptor
Test: relative phosphorylation of the sub-library (ratio to the mean residue at this position); higher = residue favoured
Outline: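 Every value reflects phosphorylation relative to the mean randomized residue. The sum of the 18 randomized residues, or 16 in the Ser/Thr-free library, served to normalize intensities at each position, which were then multiplied by that number. Intensities came from phosphorimaging with ImageQuant of biotinylated Tyr-centred peptides captured on streptavidin membranes after 90 min with purified recombinant kinases and 50 μM ATP plus γ-32P-ATP.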

Chain of HCK, construct: aa230-497, human (P08631 230-497, looked up): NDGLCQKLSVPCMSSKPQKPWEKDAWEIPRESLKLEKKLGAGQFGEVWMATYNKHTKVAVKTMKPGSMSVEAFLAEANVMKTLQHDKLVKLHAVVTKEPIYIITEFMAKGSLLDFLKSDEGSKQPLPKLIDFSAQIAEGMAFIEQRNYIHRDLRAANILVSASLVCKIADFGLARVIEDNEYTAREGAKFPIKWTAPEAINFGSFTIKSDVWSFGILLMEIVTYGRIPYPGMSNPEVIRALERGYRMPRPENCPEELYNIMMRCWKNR
Chain of LTK, construct: aa450-end, human (P29376 450-864, looked up): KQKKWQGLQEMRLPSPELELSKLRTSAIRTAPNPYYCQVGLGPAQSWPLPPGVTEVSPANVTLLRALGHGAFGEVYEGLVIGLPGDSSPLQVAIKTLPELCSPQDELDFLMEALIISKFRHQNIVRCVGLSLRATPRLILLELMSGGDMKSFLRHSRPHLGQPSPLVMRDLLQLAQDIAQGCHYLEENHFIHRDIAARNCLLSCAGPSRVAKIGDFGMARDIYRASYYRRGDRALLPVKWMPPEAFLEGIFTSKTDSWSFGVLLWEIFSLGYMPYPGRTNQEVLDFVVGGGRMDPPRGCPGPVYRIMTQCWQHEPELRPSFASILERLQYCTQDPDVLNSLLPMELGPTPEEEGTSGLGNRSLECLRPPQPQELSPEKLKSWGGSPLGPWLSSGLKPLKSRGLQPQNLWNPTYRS
Chain of EPHA5, construct: aa662-948, human (P54756 662-948, looked up): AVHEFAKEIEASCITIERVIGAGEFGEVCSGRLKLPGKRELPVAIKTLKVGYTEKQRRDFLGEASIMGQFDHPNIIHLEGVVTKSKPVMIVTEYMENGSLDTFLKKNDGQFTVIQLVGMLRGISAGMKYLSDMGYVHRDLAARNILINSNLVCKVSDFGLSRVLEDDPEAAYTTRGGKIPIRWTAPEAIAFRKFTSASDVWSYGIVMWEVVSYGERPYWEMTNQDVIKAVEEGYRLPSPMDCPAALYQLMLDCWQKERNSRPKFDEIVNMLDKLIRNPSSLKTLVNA

HCK, construct: aa230-497, human (from UniProt P08631)
relative phosphorylation
Details	at +1	at +2	at +3	at +4	at +5	at -1	at -2	at -3	at -4	at -5
A fixed	1.66	0.982	0.656	0.876	1.06	0.652	1.08	0.95	1.15	1.1
D fixed	0.917	0.585	0.323	0.623	0.676	0.844	1.29	1.43	1.16	1.18
E fixed	1.55	1.19	0.316	0.766	0.746	1.04	1.49	1.65	1.47	1.01
F fixed	0.785	1	2.12	1.08	1.05	1.09	0.717	1.11	0.966	0.987
G fixed	2.28	0.813	0.862	1.11	1.09	0.456	1.31	1.02	1.31	1.18
H fixed	0.812	0.659	0.992	1.09	0.964	0.768	0.915	1.01	0.85	0.907
I fixed	0.815	1.15	1.84	0.87	0.769	2.91	0.843	0.718	0.977	0.922
K fixed	0.253	0.807	0.675	1.31	1.27	0.259	0.633	0.543	0.629	0.91
L fixed	0.816	1.03	1.49	0.907	0.984	2.15	1	0.956	1.18	1.09
M fixed	1.37	1.13	1.1	1.31	1.06	1.12	0.808	0.964	1.11	1.1
N fixed	0.612	0.95	0.477	0.801	0.853	0.414	1.24	1.15	0.817	0.995
P fixed	0.265	0.975	0.758	0.902	1.26	0.769	1.06	1.06	1.15	1.16
Q fixed	0.923	0.888	0.508	0.99	0.731	0.521	1.04	0.867	0.934	0.99
R fixed	0.369	0.993	1.18	1.49	1.51	0.228	0.667	0.58	0.685	0.772
S fixed	1.12	1.17	0.663	0.972	1.05	0.489	1.18	1.02	0.761	0.942
T fixed	0.97	1.42	0.706	0.924	0.998	1.35	1.01	0.961	0.709	0.845
V fixed	1.14	1.17	1.36	0.872	0.811	2.24	0.95	0.807	0.925	0.912
W fixed	1.34	1.08	1.98	1.11	1.12	0.698	0.771	1.2	1.21	0.99
pThr fixed	0.949	1.18	0.296	0.431	0.421	2.4	1.22	1.12	1.05	1.09
pTyr fixed	1.46	1.61	0.497	0.628	0.569	1.09	1.21	1.37	1.4	1.1

LTK, construct: aa450-end, human (from UniProt P29376)
relative phosphorylation
Details	at +1	at +2	at +3	at +4	at +5	at -1	at -2	at -3	at -4	at -5
A fixed	2.49	0.74	0.654	0.78	0.895	0.879	1.07	0.891	1.26	1.05
D fixed	0.526	0.697	0.327	0.862	0.716	1.28	0.86	1.09	0.982	1.02
E fixed	1.34	0.934	0.278	0.952	0.642	0.877	0.963	1.49	1.21	0.905
F fixed	0.908	1.31	2.08	1.11	1.37	0.992	0.711	1.03	1.05	1.01
G fixed	0.74	0.404	0.61	0.982	1.12	0.345	1.17	0.983	1.19	1.19
H fixed	0.848	0.806	0.808	1.11	0.914	1.12	1.08	0.947	0.883	0.961
I fixed	1.23	1.1	2.95	0.875	1	2.47	1.01	0.705	0.762	0.839
K fixed	0.402	0.708	0.361	1.1	0.949	0.377	1.09	1.09	1.05	1.23
L fixed	1.07	1.41	1.38	0.85	1.04	2.06	0.934	0.916	1.01	0.999
M fixed	1.82	1.19	1.82	1.07	0.968	0.982	0.882	0.886	0.878	0.844
N fixed	0.476	0.908	0.445	0.822	0.855	1.27	0.986	1.18	0.858	1.17
P fixed	0.18	0.683	0.671	1.02	1.65	0.835	1.04	0.968	1.2	1.14
Q fixed	1.21	0.834	0.468	1.18	0.763	0.576	1.07	0.923	1.1	0.987
R fixed	0.564	1.21	0.453	1.28	1.19	0.372	1.35	1.29	1.51	1.32
S fixed	1.02	0.654	0.547	0.916	0.916	0.477	1.07	1	0.679	0.831
T fixed	0.833	0.609	0.786	0.851	1.07	0.866	1.09	0.91	0.602	0.703
V fixed	1.27	1.1	2.09	0.854	0.806	1.68	0.894	0.757	0.735	0.815
W fixed	1.07	2.71	1.27	1.37	1.14	0.536	0.731	0.943	1.04	0.993
pThr fixed	0.903	0.538	0.284	0.676	0.557	0.691	0.702	0.79	0.885	0.891
pTyr fixed	1.46	2.37	0.533	1.29	0.546	4.33	1.16	1.12	1.11	1.06

EPHA5, construct: aa662-948, human (from UniProt P54756)
relative phosphorylation
Details	at +1	at +2	at +3	at +4	at +5	at -1	at -2	at -3	at -4	at -5
A fixed	1.5	0.555	0.644	0.75	1	0.44	1.06	0.741	1.03	0.879
D fixed	1.25	1.88	0.493	1.3	1.25	2.92	1.34	1.4	1.22	1.11
E fixed	3.4	2.46	0.463	1.35	1.27	1.59	1.56	1.74	1.5	1.07
F fixed	0.713	1.41	1.41	1.07	1.01	1.03	0.671	1.35	1.11	1.06
G fixed	0.825	0.275	0.426	1.21	1.2	0.215	1.14	0.85	1.18	1.14
H fixed	0.529	0.834	0.862	1.2	0.903	0.651	0.89	1.03	1.02	1.08
I fixed	1.05	0.877	2.62	0.716	0.778	1.83	0.725	0.845	0.83	0.973
K fixed	0.174	0.329	0.218	0.638	0.64	0.203	0.779	0.604	0.778	0.921
L fixed	0.847	0.869	1.85	0.707	0.916	1.74	0.789	0.877	1	0.983
M fixed	1.53	0.976	1.37	0.965	0.97	0.815	0.604	0.935	0.891	1.02
N fixed	0.48	1.18	0.477	0.805	0.906	2.59	1.28	1.12	0.966	1.11
P fixed	0.144	0.481	1.39	1.19	1.53	0.333	1.21	0.953	1.16	0.983
Q fixed	1.31	0.857	0.867	1.01	0.961	0.465	1.23	0.966	1.2	1.18
R fixed	0.224	0.47	0.35	0.832	0.763	0.232	0.883	0.751	0.885	0.968
S fixed	0.756	0.622	0.514	0.925	1.04	0.437	1.39	0.868	0.749	0.822
T fixed	0.62	0.772	0.563	0.937	0.859	0.924	0.885	0.893	0.64	0.824
V fixed	1.5	0.912	1.95	0.729	0.802	0.932	0.829	0.806	0.776	0.757
W fixed	1.15	2.25	1.52	1.68	1.2	0.662	0.729	1.29	1.05	1.12
pThr fixed	1.77	2.65	0.559	1.37	1.06	1.87	1.13	0.996	0.952	0.917
pTyr fixed	2.61	6.1	1.08	1.72	1.61	2.82	1.52	1.25	1.29	1.15

EGFR, construct: aa668-end, human (from UniProt P00533)
relative phosphorylation
Details	at +1	at +2	at +3	at +4	at +5	at -1	at -2	at -3	at -4	at -5
A fixed	0.795	0.684	0.702	0.943	1.08	0.639	1.08	0.898	1.14	0.991
D fixed	0.496	1.29	1.17	1.09	1.12	2.93	1.74	2.12	1.58	1.34
E fixed	0.948	1.95	1.08	1.42	1.06	2.35	1.92	2.39	1.59	1.2
F fixed	2.04	1.23	1.06	0.967	1.06	0.716	0.637	0.848	1.01	0.989
G fixed	0.246	0.422	0.884	1.19	1.11	0.487	1.09	1.03	1.1	1.24
H fixed	1.4	0.836	0.882	1.08	0.904	0.988	0.813	0.949	0.77	0.989
I fixed	1.85	1.12	1.72	0.823	0.785	1.77	0.862	0.601	0.801	0.955
K fixed	0.26	0.498	0.34	0.895	0.935	0.315	0.605	0.561	0.789	0.794
L fixed	0.988	0.964	1.51	0.756	0.918	1.07	0.831	0.748	0.992	1
M fixed	0.826	1.03	1.02	1.11	0.902	0.757	0.821	0.776	0.855	0.96
N fixed	0.383	1.01	0.61	0.783	0.881	1.09	1.06	1.2	0.917	1.1
P fixed	0.313	0.623	0.824	1.1	1.66	0.721	1.11	0.934	1.1	1.07
Q fixed	0.804	0.905	0.941	0.969	0.827	0.768	1.13	0.881	1.08	0.954
R fixed	0.299	0.685	0.665	0.978	0.825	0.317	0.575	0.586	0.763	0.87
S fixed	0.762	0.843	0.79	0.931	1.14	0.546	1.13	0.995	0.827	0.88
T fixed	1.09	0.907	0.956	0.964	0.913	0.784	0.923	0.935	0.672	0.802
V fixed	2.64	1.05	1.47	0.88	0.899	1.16	0.979	0.7	0.825	0.851
W fixed	1.85	1.96	1.37	1.12	0.981	0.598	0.708	0.843	1.19	1
pThr fixed	1.41	1.5	0.796	1.02	1.08	2.05	1.57	1.61	1.41	1.2
pTyr fixed	11.9	5.31	0.921	1.45	1.01	5.3	2.06	2.19	2.18	1.69
